The supplement of paper PMC12764529
± gives the half width of the 95% confidence interval.

Legend:
[1] = folding stability dG unfold from chymotrypsin proteolysis; higher = more stable
Experimental: (§1)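 Folding stability of de novo designed mini-proteins (<80 aa, no Cys; designed by TrROS, TrMRF, ProteinMPNN and the joint model) was measured by cDNA display proteolysis with trypsin and chymotrypsin. Each protease was used at 11 concentrations in a threefold dilution series plus a no-protease condition. K50 was inferred by Bayesian fitting of sequencing counts, and dG unfold was derived against a sequence-predicted unfolded-state K50 (Tsuboyama et al. method). Sequences shown include variable-length N-terminal GS-type padding (SAGGSAGG...) inside a display construct carrying a PA tag. Rows were kept only if the AF2 dimer inter-PAE was >15, to exclude likely homo-oligomers.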

[2] = folding stability dG unfold (combined trypsin and chymotrypsin); higher = more stable
Experimental: as §1

Row | Sequence | folding stability dG unfold [1] [kcal/mol] | folding stability dG unfold [2] [kcal/mol]
1 | MPSVTLPVTLVLDTRRPDGRPLTPEQVRALAEAAVRELAEATGVDVEADVTVTPLGPEGRAVVDVVVTVRPS [r1_231_TrMRF] | 0.746 ± 0.1 | 0.201 ± 0.14
2 | MTEKKEESLGEKKRITTTKPQEDGNPVVTERIIDPNGTIEKVIVKKSSPNKPTTEELPPFSTSNKEIVEKLS [r1_301_JUSTAS] | -0.691 ± 0.14 | -0.821 ± 0.4
3 | MTTETLEEEEIPEEGIRIETVRTTDASGKPSTETVVTYEEVPLEPENTAPPVKFDDKGKRYNPGIGLEGLDS [r1_270_JUSTAS] | -0.664 ± 0.24 | < -1
4 | NIRFPDGREIEIPPEPGEEYEIMLPNGPEIKIKKIKYENGEPTIEIERKDGGKKEHEMPPNQPDQILDAIRS [r1_66_TrROS] | 0.421 ± 0.051 | 0.0319 ± 0.29
5 | NYRVEIDDMELFPAPPGQEIRIPLKVEDDGQEHELEEIQVNPDDGYITMKVKIEPDGEPKEFTITIPIPPGS [r1_47_TrROS] | 0.158 ± 0.52 | –
6 | RTISIDEIREKLGMDPDDLKNMPMEEIADEIRDELPPGRAKGVKISPNEDDGMWTITVKYKNGRPVEITIDS [r1_340_TrROS] | 0.671 ± 0.16 | 0.156 ± 0.37
7 | SADTLTVSDLMHKLMEEERKKNPEPWSPEDMQEWAKTAARKLADKEGIPIKDVEVEPTDGYPSITVKVPSAG [r14_147_TrROS] | -0.691 ± 0.73 | < -1
8 | SAGATESETFALPGGEEVTVTTTYTPLPGDALRTTVTTWTTTLGPSGPAVTTATTTTTYPPELAAAGASAGG [r19_63_JUSTAS] | 0.0387 ± 0.14 | -0.807 ± 0.24
9 | SAGAVSTFENSNPSISLEELKEKIEEKLGIELVELKKVEDVPGGLKYEIVVPKIKGEKPFSAEEIAKLLSAG [r5_550_JUSTAS] | -0.0356 ± 0.5 | -0.434 ± 0.56
10 | SAGDISPSDPVTVRVEVEKDPNSKSTLVRVDEETPTGRRLERRIPADGPVVVTEREPASGATRVTVEPASAG [r5_55_JUSTAS] | 0.00901 ± 0.071 | -0.563 ± 0.11
11 | SAGDWIREAIKKAGYDNVEIEEIQPNPNGGVSIVIQPSPGMPREQQRRAQEEIVDALREESPDFKIHIHSAG [r5_101_TrROS] | 0.584 ± 0.087 | 0.192 ± 0.26
12 | SAGEGSRSPGVVLHVTTPTEPLVVREPVAPDEDPEAVLERLAAEVRAALGPDTTVSGEVLSPAELARAASAG [r5_583_JUSTAS] | -0.465 ± 0.18 | -0.738 ± 0.23
13 | SAGEVEKITLTIVVEDPNMTLEEILKKALEALGLKEEDVEVKIVSIKEETLPDGRKLTVIEVEITVPKPSAG [r5_528_TrROS_Hall] | 3.43 ± 0.26 | –
14 | SAGEYKVEEKDGKLYVTYPNGEKKEVEVKPAPPPVVTIKVKSVEELKALAEELNLEITEISEDTVVVKFSAG [r5_328_TrROS_Hall] | 0.0799 ± 0.38 | -0.643 ± 0.62
15 | SAGGAGQRVVLSSDKSLEDLEKLREENPDVSIEVTEINKLEPVKPENGGLEEVPSEIVAELTPGERRSAGGS [r8_172_JUSTAS] | 0.401 ± 0.051 | -0.0394 ± 0.076
16 | SAGGAIGPEEAERLAQEIADRLAAEFREAEPDVEVEVEAEVFPPEGVIRVRPRLPDGRLLAEVTFPVGSAGG [r13_247_TrMRF] | 0.498 ± 0.041 | 0.0873 ± 0.067
17 | SAGGDKLGKPLGGKPVTFDISKEELSYNPSNGTWSKSVVTTPRTVFYPPDAEPDPAVFASGAGSVTLASAGG [r13_753_JUSTAS] | 0.281 ± 0.091 | -0.184 ± 0.077
18 | SAGGMRFRVRLFRPGRWLPPREVEPGAEAALRELPADVPFVVIEFDDPRGRRRVFFRSPEELRRAVAASAGG [r13_299_TrMRF] | 0.379 ± 0.66 | –
19 | SAGGSAGGSAGGAEELLENGRLRIEWPNGRTHTIDLDDGKIEPPPGFPPDNIRRVEIVPPSAGGSAGGSAGG [r7_566_TrROS] | 0.444 ± 0.24 | –
20 | SAGGSAGGSAGGNIVDRLQERFPNFPPKSVDVKMNPNGNRSVDIKFDGPPEMRDALLELSAGGSAGGSAGGS [r10_1089_TrROS] | 0.128 ± 0.059 | –
21 | SAGGSAVKITVEEREIIVPPEEDPLAENNPGIVVKKKTVKYEKEMTPEEKEKFLKEIEEKTGIKIISAGGSA [r15_347_JUSTAS] | -0.162 ± 0.24 | –
22 | SAGGSAVTAEWILDHMRDMGMPEEDVKIDDVQLEREPDKVVIRIEITMRHPNDGKQRRMDMEIPLPSAGGSA [r15_863_TrROS] | -0.164 ± 0.34 | –
23 | SAGMPELVEFPFPIPPEFPDIPPETLAKLIAEELNEEEFSVEVKSYDPEKPIVTLTVTKDGKPVAEFTDSAG [r5_80_TrMRF] | – | < -1
24 | SAGMPVTTVTLYTTDPATGTPTATPGPISDVLALLKREGLPVEREEYDPSPQTHTVYSKGPGKDYIVAGSAG [r5_521_JUSTAS] | – | < -1
25 | SAGMTIPVTSPEEARQVAEELAPEVGKEVTIEEAPPSVSTDNLPSNAIVLVNPDSGVRYVATIKEPDHHSAG [r5_173_JUSTAS] | – | < -1
26 | SAGPEPIKIKILKMQPNPNGTPMIRVKVVPPDGKPGEIPIPQEMLKEGNLDDMTIDDIAEEFPGLKPVSAGG [r19_74_TrROS] | – | < -1
27 | SAGPFYVRMKIEVPRKTYDPEDGEPKQEKREIDIWFPMKSEEQARDHADKLAEELPPENVKITDIEPFSAGG [r19_209_TrROS] | – | < -1

Row | Sequence | folding stability dG unfold [1] [kcal/mol] | folding stability dG unfold [2] [kcal/mol]
28 | SAGPPNDVKPIEIPFKMENGSNFRAEIWRDPGDGKVFVPIEYPNPWHRKRMQNWARELAEEHGIDRVEPSAG [r5_99_TrROS] | – | < -1
29 | SAGQIRIEIEPNPNGKPKIRITMHNPDGPPREREIPIDPGETVSDIADEFFENGMPIRPGSTIEDLIESAGG [r19_263_TrROS] | – | < -1
30 | SAGSATFTRATTPLPEVTLSWEELEELVKDPNIDSISVHSPTADRTLPAPEGKITGPLAPDQTVTLVGSAGG [r19_152_JUSTAS] | – | < -1
31 | SAGSFEYEFENGSSNRVEVDPENKEVKVEYEPKEGKLIAALPEKGVVLVPIKDKKVEEAAKEVIEKLKKSAG [r5_447_TrMRF] | – | < -1
32 | SAGSFSVRLTLRAPDGTTETVSGPAAVAAAIAALPADETAESSVPGSSSSSTVTLPAGGTFSLSTLSSSSAG [r5_506_JUSTAS] | – | < -1
33 | SAGSMKLLILATSYPPDGSTTTKPIFGTEEDLKAAVEALPDGEKAATIIEVSEEGLKTIKTETRPPSLGSAG [r5_970_JUSTAS] | – | < -1
34 | SAGSYTVDVSYRVPVRLSPAGAVEVPVEVELKRYLPDGVPLGEEEIEEEEEKLAEEIAKELAEALAPLSAGG [r19_389_JUSTAS] | – | < -1
35 | SAKAKVVEIKEENGKVIIKIEVEDENGNKKTIEIELPKDDIEIVEVDEDKIVIYNKKTGKKITLDLKDLSAG [r14_947_TrROS_Hall] | – | > 6
36 | SAMKVIVKIKIYDKNGKLVKEIEIPAEILEKDPEKLKELAEKLAEELKKKGYKVEIELVEVVPVEEEEESAG [r14_972_TrROS_Hall] | 4.5 ± 0.41 | –
37 | SAMPPGAIVKVKIISKERRIDNELGVEVVGYTEKEEDVKVLEVKEPGEKVELKLEIPNLPEGSELELGFSAG [r14_412_TrMRF] | – | < -1
38 | SAMVVPVELEGPVGDLDELKEKTKKEVEEELGLPDDLENITVTVEKIEPLPDPEGKPVTTRIKLKITVKSAG [r14_736_JUSTAS] | – | < -1
39 | SAPDLGSGTLLTTESRAVTDPEGNTTWVTRPVVVPVEREYFVTDPETGEWAPLSTYDPATGTLHDPNHHSAG [r14_122_JUSTAS] | – | < -1
40 | SARLFTIRIQGPPEQLKDALQEEFDMEVNIEPEPNGSTTITFELPPNNYDRFEEALEQLPGFPIEIEPVSAG [r14_521_TrROS] | – | < -1
41 | SARYKRNPDGKPRREEPVPPKPPTIEIPIPFNMPPDDPEMMKRFAEMIADMLADEHGLPPNVPIHISMNSAG [r14_453_TrROS] | – | < -1
42 | SATLRDLIKELGFPMDIEHDGDSVKITMRNPDDPNPGQEQTFEIPPPNGKPLKFKIRMRNNGIQEIEPESAG [r14_401_TrROS] | – | < -1
43 | SATVTVETTLSDVDTLLAAAEAAGWAVTRTQEPSSPLRRATITAPLPDGTAAPVTVTVDPASGRAVLVGSAG [r14_169_JUSTAS] | – | < -1
44 | SKKFQIYNPDEGQPFQIEVDPEDGKVTVEWPNGEEEEAPVKDIEIDPGHGWIKIKHPGKEVTIRIPPDMFSA [r9_325_TrROS] | 0.00862 ± 0.44 | –
45 | SKVDIDVERDPGNGHYEYTVRNPNNGYDIKVRIADMDPEHGPIQVEIEPLDDGKKVHYPMPWDDIKDLIKSA [r9_1221_TrROS] | – | < -1
46 | SMPYLVRVLAELPDGELLGEAEAEVLPGEELVFSDPLPVRVRAVIYDPETDEPREVEADGRVGVLVVPVESA [r9_272_TrMRF] | – | < -1
47 | SMTYTVTKESSVSPLPDGSPVTSTTTTVTAPTEPVTVTTSTSVTPLSTGTSTTTSTTTTTVPPDDPLAASSA [r9_34_JUSTAS] | – | < -1
48 | SMYYVATVIRKKKDGGPYLGPEVRIVESPEEAEEIALEPAPERDYVVELKVEEVPLEELENPEKIKELLESA [r9_864_TrMRF] | – | < -1
49 | SNFYFTIEIERPDPNGEEKKIEITIPMERINQELQEEHGMESPQEAQEYFAKEIAEKFDENGYKVKIEPFSA [r9_868_TrROS] | – | -0.316 ± 0.52
50 | SPAIVLATSDPSTRRRTVFVAQSHPPGPAVPDLGFDIPIGDNLYLGASISVSPSGPVNIDSIIVGPPDSLSA [r9_780_TrMRF] | – | < -1
51 | SPKIKITEVEPNPGNMEKRTIELPNRPITLYWPPENGYYRVKIEDPDNNKERQIMVPPGQPPEEIAKDLLSA [r9_522_TrROS] | – | < -1
52 | SSFKLYKRPDGSPYLTAPVPEKNLKSALDPSTGVPYIATTPGGELGALSLLADSLEELLKLPPLTFTKPGSA [r9_205_JUSTAS] | – | < -1
53 | SSFKTKITILEERELEPVPDRNGTPNPVRLVTIAVTNLGPESVSPEVVEKVKKEVEEKFKEEGIPVEIKDES [r1_305_JUSTAS] | – | < -1
54 | SSVSFDPATGTTTVTTTTPTGPDSPVLTTTTTTLTTNPDGTVTTTTTTTTTTVAPAAPLLTPANLALRAALS [r1_4_JUSTAS] | – | < -1
